Test results from patent publication US11767359B2, “C3-binding agents and methods of use thereof” (NGM Biopharmaceuticals, Inc., priority 2018, dated 2023).
Where a chain is given by its changes, count along the chain named. Numbers in names are those of the source. Blank lines part the entries; values can stand above or below the molecule they belong to.

What was measured:
Factor Bb = Factor Bb (Homo sapiens, UniProt P00751); experiment: Binding profile: binding to Factor Bb; conditions: relative to the binding of the negative control mIgG2 antibody
Factor Bb, sequence (P00751 260-764 limits assumed): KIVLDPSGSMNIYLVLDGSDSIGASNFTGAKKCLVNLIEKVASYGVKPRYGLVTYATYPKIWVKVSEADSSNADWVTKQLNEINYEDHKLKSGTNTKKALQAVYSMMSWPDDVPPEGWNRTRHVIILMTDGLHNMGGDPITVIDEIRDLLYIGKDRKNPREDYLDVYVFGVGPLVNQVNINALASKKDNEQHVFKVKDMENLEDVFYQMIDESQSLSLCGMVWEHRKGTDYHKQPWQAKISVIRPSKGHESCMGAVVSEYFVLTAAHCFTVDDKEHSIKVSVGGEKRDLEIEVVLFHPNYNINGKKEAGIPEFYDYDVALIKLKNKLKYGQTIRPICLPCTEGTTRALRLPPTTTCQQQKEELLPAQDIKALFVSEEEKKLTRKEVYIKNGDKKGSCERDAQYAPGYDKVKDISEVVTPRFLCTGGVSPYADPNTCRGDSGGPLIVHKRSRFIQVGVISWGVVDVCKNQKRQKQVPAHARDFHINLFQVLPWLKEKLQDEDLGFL
Text: (§1) The anti-C3 antibodies described herein were characterized for their ability to bind a number of other components of the complement cascade. Antibodies were screened for binding to C3, C3a, C3b, C3c, C3d, iC3b, and Factor Bb. All the anti-C3 antibodies included in Table 13 were able to block complement activation. The data are relative to the binding of the negative control mIgG2 antibody.

C3c = C3c (Homo sapiens, UniProt P01024); experiment: Binding profile: binding to C3c; conditions: relative to the binding of the negative control mIgG2 antibody
C3c, sequence (P01024 23-667 limits assumed): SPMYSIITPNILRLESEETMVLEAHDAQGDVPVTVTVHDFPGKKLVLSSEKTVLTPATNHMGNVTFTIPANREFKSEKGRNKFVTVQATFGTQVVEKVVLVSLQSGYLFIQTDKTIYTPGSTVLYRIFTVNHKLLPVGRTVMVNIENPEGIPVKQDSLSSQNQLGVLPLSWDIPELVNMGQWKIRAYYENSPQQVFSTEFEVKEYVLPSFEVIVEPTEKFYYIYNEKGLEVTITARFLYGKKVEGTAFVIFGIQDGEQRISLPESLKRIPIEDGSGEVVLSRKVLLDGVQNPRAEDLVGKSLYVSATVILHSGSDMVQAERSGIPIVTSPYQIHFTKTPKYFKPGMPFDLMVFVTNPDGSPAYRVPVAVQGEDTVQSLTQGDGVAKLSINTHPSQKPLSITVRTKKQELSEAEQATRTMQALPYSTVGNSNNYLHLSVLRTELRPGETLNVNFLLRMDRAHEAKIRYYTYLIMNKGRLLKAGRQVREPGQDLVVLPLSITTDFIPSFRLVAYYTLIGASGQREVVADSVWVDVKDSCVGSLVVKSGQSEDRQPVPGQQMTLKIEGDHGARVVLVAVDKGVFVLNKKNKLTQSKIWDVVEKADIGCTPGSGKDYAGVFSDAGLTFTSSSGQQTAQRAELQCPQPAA
C3c, sequence (P01024 749-954 limits assumed): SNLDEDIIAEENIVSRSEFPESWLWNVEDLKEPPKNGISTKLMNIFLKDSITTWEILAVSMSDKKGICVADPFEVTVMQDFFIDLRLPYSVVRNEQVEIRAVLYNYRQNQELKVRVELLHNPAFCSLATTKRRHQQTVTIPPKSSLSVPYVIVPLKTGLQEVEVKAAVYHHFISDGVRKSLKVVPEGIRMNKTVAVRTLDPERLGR
C3c, sequence (P01024 1321-1663 limits assumed): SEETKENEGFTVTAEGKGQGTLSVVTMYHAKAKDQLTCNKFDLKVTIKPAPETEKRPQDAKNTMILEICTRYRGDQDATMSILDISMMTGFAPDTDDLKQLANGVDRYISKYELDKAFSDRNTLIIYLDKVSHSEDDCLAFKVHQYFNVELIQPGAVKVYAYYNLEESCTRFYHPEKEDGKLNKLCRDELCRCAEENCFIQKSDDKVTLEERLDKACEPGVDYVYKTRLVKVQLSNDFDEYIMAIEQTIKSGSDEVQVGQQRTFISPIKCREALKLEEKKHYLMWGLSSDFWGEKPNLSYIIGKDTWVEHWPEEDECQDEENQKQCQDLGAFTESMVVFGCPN
Text: as §1

iC3b = iC3b (Homo sapiens, UniProt P01024); experiment: Binding profile: binding to iC3b; conditions: relative to the binding of the negative control mIgG2 antibody
iC3b, sequence (P01024 23-667 limits assumed): as the sequence (P01024 23-667 limits assumed) above
iC3b, sequence (P01024 749-1303 limits assumed): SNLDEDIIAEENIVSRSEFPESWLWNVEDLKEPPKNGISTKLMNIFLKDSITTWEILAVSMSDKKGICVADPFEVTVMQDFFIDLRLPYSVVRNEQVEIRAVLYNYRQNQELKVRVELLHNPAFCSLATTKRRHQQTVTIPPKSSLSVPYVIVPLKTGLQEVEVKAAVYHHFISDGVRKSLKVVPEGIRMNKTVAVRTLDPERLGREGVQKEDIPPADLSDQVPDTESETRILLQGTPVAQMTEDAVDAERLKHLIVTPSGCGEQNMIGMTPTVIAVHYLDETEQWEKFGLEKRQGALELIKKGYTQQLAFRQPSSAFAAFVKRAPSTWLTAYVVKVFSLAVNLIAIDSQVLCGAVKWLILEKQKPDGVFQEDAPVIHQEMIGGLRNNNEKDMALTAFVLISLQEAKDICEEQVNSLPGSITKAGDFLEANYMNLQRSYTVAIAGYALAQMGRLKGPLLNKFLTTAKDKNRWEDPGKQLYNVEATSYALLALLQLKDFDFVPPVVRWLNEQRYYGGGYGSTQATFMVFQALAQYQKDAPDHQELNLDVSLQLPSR
iC3b, sequence (P01024 1321-1663 limits assumed): as the sequence (P01024 1321-1663 limits assumed) above
Text: as §1

C3 [1] = target: T1, C3 (Homo sapiens, UniProt P01024); experiment: Binding profile: binding to C3; conditions: summary in words of Table 13
T1 sequence (P01024 23-1663): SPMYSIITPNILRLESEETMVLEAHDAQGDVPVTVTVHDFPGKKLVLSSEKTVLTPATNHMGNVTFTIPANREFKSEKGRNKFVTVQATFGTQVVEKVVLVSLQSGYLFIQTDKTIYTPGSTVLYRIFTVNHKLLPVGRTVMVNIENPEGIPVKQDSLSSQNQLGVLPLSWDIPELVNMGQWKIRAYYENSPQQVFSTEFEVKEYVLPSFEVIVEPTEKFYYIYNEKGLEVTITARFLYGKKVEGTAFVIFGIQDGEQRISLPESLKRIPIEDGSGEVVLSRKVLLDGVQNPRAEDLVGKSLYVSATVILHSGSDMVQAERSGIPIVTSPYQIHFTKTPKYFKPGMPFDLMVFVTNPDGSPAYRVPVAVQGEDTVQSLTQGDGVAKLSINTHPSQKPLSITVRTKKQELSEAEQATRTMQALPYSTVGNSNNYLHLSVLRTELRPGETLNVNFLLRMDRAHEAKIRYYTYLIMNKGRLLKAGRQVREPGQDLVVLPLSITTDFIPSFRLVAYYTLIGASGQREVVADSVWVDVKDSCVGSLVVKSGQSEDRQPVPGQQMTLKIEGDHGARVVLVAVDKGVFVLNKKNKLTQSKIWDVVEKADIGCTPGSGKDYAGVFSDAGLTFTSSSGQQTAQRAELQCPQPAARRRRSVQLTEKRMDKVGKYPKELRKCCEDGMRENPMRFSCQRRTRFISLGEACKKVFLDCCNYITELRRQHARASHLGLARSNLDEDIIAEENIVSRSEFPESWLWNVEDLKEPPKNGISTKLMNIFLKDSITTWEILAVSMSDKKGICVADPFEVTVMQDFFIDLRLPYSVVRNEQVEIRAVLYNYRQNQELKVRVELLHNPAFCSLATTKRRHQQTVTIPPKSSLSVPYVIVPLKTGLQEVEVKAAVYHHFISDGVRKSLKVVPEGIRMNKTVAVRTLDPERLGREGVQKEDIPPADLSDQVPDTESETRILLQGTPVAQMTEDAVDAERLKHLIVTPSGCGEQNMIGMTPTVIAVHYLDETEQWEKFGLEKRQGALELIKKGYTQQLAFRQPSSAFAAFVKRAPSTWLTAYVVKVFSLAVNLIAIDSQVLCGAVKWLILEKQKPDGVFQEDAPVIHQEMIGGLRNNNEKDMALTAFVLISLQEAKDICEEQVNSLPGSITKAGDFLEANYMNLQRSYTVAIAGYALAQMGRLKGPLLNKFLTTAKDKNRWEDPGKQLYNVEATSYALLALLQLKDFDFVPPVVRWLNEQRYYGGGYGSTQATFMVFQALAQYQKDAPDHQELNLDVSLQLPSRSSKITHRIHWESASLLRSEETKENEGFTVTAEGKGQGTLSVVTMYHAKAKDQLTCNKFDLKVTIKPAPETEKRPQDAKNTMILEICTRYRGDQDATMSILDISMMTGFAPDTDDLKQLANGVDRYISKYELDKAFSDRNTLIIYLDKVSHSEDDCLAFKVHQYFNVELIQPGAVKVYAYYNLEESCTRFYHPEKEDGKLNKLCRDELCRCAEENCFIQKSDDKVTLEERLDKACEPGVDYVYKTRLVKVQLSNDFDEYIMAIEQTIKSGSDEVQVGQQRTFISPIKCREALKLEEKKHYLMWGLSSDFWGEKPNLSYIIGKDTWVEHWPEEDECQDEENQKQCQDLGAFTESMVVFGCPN
Text: as §1

C3b = C3b (Homo sapiens, UniProt P01024); experiment: Binding profile: binding to C3b; conditions: relative to the binding of the negative control mIgG2 antibody
C3b, sequence (P01024 23-667 limits assumed): as the sequence (P01024 23-667 limits assumed) above
C3b, sequence (P01024 749-1663 limits assumed): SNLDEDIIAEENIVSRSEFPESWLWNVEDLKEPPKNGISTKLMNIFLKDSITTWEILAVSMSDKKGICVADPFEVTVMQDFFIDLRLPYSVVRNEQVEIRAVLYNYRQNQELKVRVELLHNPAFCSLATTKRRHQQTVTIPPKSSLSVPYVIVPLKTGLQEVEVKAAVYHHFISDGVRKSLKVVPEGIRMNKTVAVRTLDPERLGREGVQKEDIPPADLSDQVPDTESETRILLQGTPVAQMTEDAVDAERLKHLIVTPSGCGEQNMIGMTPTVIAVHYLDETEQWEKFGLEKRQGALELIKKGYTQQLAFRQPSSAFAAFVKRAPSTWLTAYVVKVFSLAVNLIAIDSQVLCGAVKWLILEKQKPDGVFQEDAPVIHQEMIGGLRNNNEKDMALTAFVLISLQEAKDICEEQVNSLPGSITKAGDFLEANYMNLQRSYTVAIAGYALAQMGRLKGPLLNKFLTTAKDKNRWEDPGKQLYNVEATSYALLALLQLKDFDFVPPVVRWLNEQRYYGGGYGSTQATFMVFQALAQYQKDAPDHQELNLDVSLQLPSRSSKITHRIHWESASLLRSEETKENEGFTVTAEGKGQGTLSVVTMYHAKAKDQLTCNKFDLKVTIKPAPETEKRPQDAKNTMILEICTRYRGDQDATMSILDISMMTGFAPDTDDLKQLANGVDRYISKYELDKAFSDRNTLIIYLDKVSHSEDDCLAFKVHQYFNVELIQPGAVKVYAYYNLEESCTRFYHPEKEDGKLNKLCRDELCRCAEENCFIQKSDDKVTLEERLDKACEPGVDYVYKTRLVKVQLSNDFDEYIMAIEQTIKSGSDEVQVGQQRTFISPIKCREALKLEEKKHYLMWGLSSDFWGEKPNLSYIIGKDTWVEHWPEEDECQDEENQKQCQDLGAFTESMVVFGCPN
Text: as §1

C3 [2] = target: T1, C3; experiment: Binding affinity by Biacore, human C3
Description: The binding affinities of exemplary anti-C3 antibodies to human C3 and cyno C3 were measured using a Biacore system (GE Healthcare LifeSciences). Briefly, anti-Fc antibody (Sigma-Aldrich) was immobilized on all four flow cells of a CM5 chip using amine coupling reagents (GE Healthcare LifeSciences). Antibodies were captured on flow cells 2, 3, and 4 using flow cell 1 as a reference. Concentrations ranging from 0.62-40 nM of human C3 or cyno C3 were injected at a flow rate of 50 μL/min at 37° C. Kinetic data were collected over time and fit using the simultaneous global fit equation to yield affinity constants (KD values) for each antibody.
More recently, a number of compstatin analogs and derivatives have been generated and studied. […] A Biacore system was used to assess the binding affinities of the different molecules to human C3. […] Evaluation of COMP or COMP-PEG binding to human C3 was carried out as follows. Human C3 was immobilized on flow cell 2 of a CM5 chip using amine-coupling reagents (GE Healthcare LifeSciences) and flow cell 1 (immobilized with a similar amount of human IgG) was used as a reference. […] Similar experiments were set up with COMP-PEG (concentration range of 25-400 nM) for evaluation at 37° C. COMP-PEG binding to human C3 was also evaluated at 25° C. with modifications. […]

[3] = Elevated pH stress test, deamidation at N55 of heavy chain CDR2; format: physicochemical
[4] = Solubility of Hz38G10 dsscFv by micro-concentration; format: physicochemical; conditions: 10 mM sodium phosphate, 40 mM sodium chloride, 0.03% polysorbate 20, 5% sucrose, pH 6.2
Description: The purified antibodies were dialyzed into buffer consisting of 10 mM sodium phosphate, 40 mM sodium chloride, 0.03% polysorbate 20, and 5% sucrose, pH 6.2. The solution was micro-concentrated using 10,000 Da NMWCO spin concentrator at 3,000×g at room temperature. Protein concentration was measured on an Agilent Cary 60 UV-VIS Solo VPE spectrophotometer.

B4: 3G8: mouse anti-C3 monoclonal antibody; VH SEQ ID NO:93, VL SEQ ID NO:94 (antibody, V domains shown)
VH: EIQLQQSGAELVKPGASVKISCMASGYSFTGYNMNWVKQSHGKGLEWIGNINPYYDSTSYNQKFKGKATLTVDKSSSTAYMQLNSLTSEDSAVYYCARENYDFVGFAYWGQGTLVTVSA
VL: QIVLSQSPAILSASPGEKVTMTCRASSSVSYMHWFQQKPGSSPKPWIYVTSNLASGVPPRFSGSGSGTSYSLTISRVEAEDAATYYCQQWSTNPLTFGAGTKLELK
binding to C3c (C3c): 0.22
binding to iC3b (iC3b): 0.25

B5: 28C3: mouse anti-C3 monoclonal antibody; VH SEQ ID NO:99, VL SEQ ID NO:100 (antibody, V domains shown)
VH: QVQLQQSGPELVKPGASVKISCKASGYAFNSCWMNWVKQRPGKGLEWIGRIYPGDGDTNYNGKFKGKATLTADKSSTTAYMQLSSLTSEDSAVYFCAREGRNYGYEDYWGQGTTLTVSS
VL: DIVLTQSPASLAVSLGQRATISCKASQSVDYDGDSYMNWYQQKPGQPPKLLIYAASDLESGIPARFSGSGSGTDFTLNIHPVEEEDAATYYCQQANEDPRTFGGGTKLEIK
binding to Factor Bb (Factor Bb): 0.00
binding to C3c (C3c): 0.28

B6: Hz38G10(N55D): Hz38G10 variant with N55D mutation in heavy chain CDR2, mimics a fully deamidated molecule (antibody, V domains shown)
VH: QVQLVQSGAEVKKPGASVKVSCKASGYTFTDFYMDWVRQAPGQRLEWMGYIYPHDGGTTYNQQFTGRVTITVDKSASTAYMELSSLRSEDTAVYYCARRGGFDFDYWGQGTLVTVSS
VL: DIQMTQSPSSLSASVGDRVTITCKASENVDTYVSWYQQKPGKAPKLLIYGASNRYTGVPSRFSGSGSGTDFTFTISSLQPEDIATYHCGQSHSYPLTFGQGTKLEIK
binding to human C3 as compared to Hz38G10 (C3 [2]): reduced binding

B7: Hz38G10 (G56A): Hz38G10 variant with G56A mutation in heavy chain CDR2; VH SEQ ID NO:21, VL SEQ ID NO:25 (antibody, V domains shown)
VH: B6 VH with D55N, G56A
VL: B6 VL
deamidation at the asparagine N55, Day 0 ([3]; pH 8.5, Day 0): 0.66%
deamidation at the asparagine N55, Day 7 ([3]; pH 8.5, Day 7): 1.0%

B8: Hz38G10 dsscFv: VL-linker-VH disulfide-linked scFv of Hz38G10, SEQ ID NO:113 (protein)
scFv: MDIQMTQSPSSLSASVGDRVTITCKASENVDTYVSWYQQKPGKAPKLLIYGASNRYTGVPSRFSGSGSGTDFTFTISSLQPEDIATYHCGQSHSYPLTFGCGTKLEIKGGGGSGGGGSGGGGSQVQLVQSGAEVKKPGASVKVSCKASGYTFTDFYMDWVRQAPGQCLEWMGYIYPHNGGTTYNQQFTGRVTITVDKSASTAYMELSSLRSEDTAVYYCARRGGFDFDYWGQGTLVTVSS
protein concentration reached with no visible aggregation [4]: 229 mg/mL

Second part, led by results:

binding to Factor Bb (Factor Bb): 0.00
binding to C3c (C3c): 0.43
binding to iC3b (iC3b): 0.49
B1: 62F2: mouse anti-C3 monoclonal antibody; VH SEQ ID NO:105, VL SEQ ID NO:106 (antibody, V domains shown)
VH: DVQLQESGPDLVKPSQSLSLTCTVTGYSITSGYSLHWIRQFPGNKLEWMGYIHYSGSTNYNPSLKSRISITRDTSKNQFFLKLNSVTSEDTATYHCARAWDYLDYWGQGTTLTVSS
VL: DIQMTQSPASLSASVGETVTITCRASENIYSQLAWYQQKQGKSPQLLVYDAKTLAEGVPSRFSGSGSDTQFSLKIISLQPEDFGRYYCHHHFGILYTFGGGTKLEMK

binding to C3c (C3c): 0.45
binding to iC3b (iC3b): 0.45
B2: 38F5: mouse anti-C3 monoclonal antibody; VH SEQ ID NO:101, VL SEQ ID NO:102 (antibody, V domains shown)
VH: EVMLVESGGALVKPGGSLKLSCTASGFTFSNYAMSWVRQTPEKRLEWVAQTISSGGRYTYYPDSVKGRFTISRDNARNTLYLQMSSLRSEDTAMYYCVRRYYGNSYWYFDVWGAGTTVTVSS
VL: DIVMTQSPSSLSVSAGEKVTMNCKSSQSLLNSGNQKHYLTWYQQKPGQPPKLLIYGASTRGSGVPDRFTGSGSGTDFTLTISSVQAEDLAVYYCQNDHSYPYTFGGGTKLEIK

binding to C3c (C3c): 0.13
binding to iC3b (iC3b): 0.06
binding to C3b (C3b): 0.06
B3: 38G10: mouse anti-C3 monoclonal antibody; VH SEQ ID NO:18, VL SEQ ID NO:19 (antibody, V domains shown)
VH: EVQLQQSGPELVKPGDSVKMSCKASGYTFTDFYMDWVKQSHGKSLEWIGYIYPHNGGTTYNQNFTGKATLTVDKSSNTAYMELHSLTSEDSAVYYCARRGGFDFDYWGQGTTLTVSS
VL: NIVMTQSPKSMSLSVGERVTLRCKASENVDTYVSWYQQKPEQSPKLLIYGASNRYTGVPDRFTGSGSATEFTLTISSVQAEDLVGYHCGQSHSYPLTFGAGTKLELK
C3 binding profile (C3 versus fragments of the complement cascade) (C3 [1]): bound preferentially to C3 with no detectable or very limited binding to any of the fragments of the complement cascade

binding to Factor Bb (Factor Bb): 0.00
binding to C3c (C3c): 0.55
binding to iC3b (iC3b): 0.72
B9: 63A3: mouse anti-C3 monoclonal antibody; VH SEQ ID NO:107, VL SEQ ID NO:108 (antibody, V domains shown)
VH: DVQLQESGPGLVKPSQSLSLTCSVTGYSITSGYYWNWIRQFPGNKLEWMGYIRYDGSNNYNPSLKNRISITRDTSKNQVFLKLNSVTPEDTATYYCARHYGYDGGAFDFWGQGTTLTVSS
VL: DIQMTQSPASLSASVGETVTITCRTSENIYNYLVWYQQKQGKSPQLLVYNAKTLEEGVPSRFSGSGSGTQFSLKVNSLQPEDFGSYYCQHHYGTPFTFGSGTKLEIK

binding to C3c (C3c): 0.17
binding to iC3b (iC3b): 0.29
B10: 3D8: mouse anti-C3 monoclonal antibody; VH SEQ ID NO:91, VL SEQ ID NO:92 (antibody, V domains shown)
VH: EIQLQQSGAELVKPGASVKISCKASGYSFTGYNMNWVKQSHGKSLEWIGNINPYYGSTNYNQKFKGKATLTVDKSSTTAYMQLDSLTSEDSAVYYCARGYYGGNYPFAYWGQGTLVTVSA
VL: B9 VL with T25A, N31S, V34A, E55A, V75I, H91Y, F96Y, S100G, T102S, L104V
